According to the supplement of paper PMC6755084:

B1: F1*; the commonest letter at each place (parent)
chain: GAGACCGCAACTGAAAAGTTGTTATCACTTGTCGTAAGACACTTTGGATGGGTTGAAGTTCTGCACGTAGAAGCAAAAGGC

Variants of: B1
Experiment: fraction ligated after 30 min (ligated reads / total reads); higher = more ligase activity
Conditions: with F1*sub RNA substrate (template-directed ligation), 42 °C
Procedure: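 Chip-synthesised pool of F1* ligase ribozyme variants (all single and double substitutions, single, double and triple deletions in the catalytic core and GAA bulge, plus designed variants) was transcribed with T7 and reacted as a pool with excess substrate F1*sub for 30 min at 42 C in 50 mM EPPS pH 8.5, 25 mM MgCl2. Ligated and unligated bands were separated by PAGE, barcoded by RT and deep sequenced; fraction ligated = ligated reads / total reads per variant, relative activity = FL / FL of wild type (0.826). Sequences are the DNA template of the ribozyme.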

Variant | fraction ligated
GAGACCGCAACTGAAAAGTTGTTATCCCTTGTCGGAAGACACTTTGGATGGGTTGAAGTTCTGCACGTAGAAGCAAAAGGC | 0.82
GAGACCGCAACTGAAAAGTTGTTATCCCTTGTCGTAAGACACATTGGATGGGTTGAAGTTCTGCACGTAGAAGCAAAAGGC | 0.844
GAGACCGCAACTGAAAAGTTGTTATCCCTTGTCGTAAGACACCTTGGATGGGTTGAAGTTCTGCACGTAGAAGCAAAAGGC | 0.78
GAGACCGCAACTGAAAAGTTGTTATCCCTTGTCGTAAGACACGTTGGATGGGTTGAAGTTCTGCACGTAGAAGCAAAAGGC | 0.765
GAGACCGCAACTGAAAAGTTGTTATCCCTTGTCGTAAGACACTATGGATGGGTTGAAGTTCTGCACGTAGAAGCAAAAGGC | 0.79
GAGACCGCAACTGAAAAGTTGTTATCCCTTGTCGTAAGACACTCTGGATGGGTTGAAGTTCTGCACGTAGAAGCAAAAGGC | 0.788
GAGACCGCAACTGAAAAGTTGTTATCCCTTGTCGTAAGACACTGTGGATGGGTTGAAGTTCTGCACGTAGAAGCAAAAGGC | 0.798
GAGACCGCAACTGAAAAGTTGTTATCCCTTGTCGTAAGACACTTAGGATGGGTTGAAGTTCTGCACGTAGAAGCAAAAGGC | 0.598
GAGACCGCAACTGAAAAGTTGTTATCCCTTGTCGTAAGACACTTCGGATGGGTTGAAGTTCTGCACGTAGAAGCAAAAGGC | 0.335
GAGACCGCAACTGAAAAGTTGTTATCCCTTGTCGTAAGACACTTGGGATGGGTTGAAGTTCTGCACGTAGAAGCAAAAGGC | 0.116
GAGACCGCAACTGAAAAGTTGTTATCCCTTGTCGTAAGACACTTTGGAAGGGTTGAAGTTCTGCACGTAGAAGCAAAAGGC | 0.701
GAGACCGCAACTGAAAAGTTGTTATCCCTTGTCGTAAGACACTTTGGACGGGTTGAAGTTCTGCACGTAGAAGCAAAAGGC | 0.519
GAGACCGCAACTGAAAAGTTGTTATCCCTTGTCGTAAGACACTTTGGAGGGGTTGAAGTTCTGCACGTAGAAGCAAAAGGC | 0.733
GAGACCGCAACTGAAAAGTTGTTATCGCTTGTCGTAAGACACTTTGGATGGGTTGAAGTTCTGCACGTAGAAGCAAAAGGC | 0.852
GAGACCGCAACTGAAAAGTTGTTATCGCTTGTCGTCAGACACTTTGGATGGGTTGAAGTTCTGCACGTAGAAGCAAAAGGC | 0.822
GAGACCGCAACTGAAAAGTTGTTATCGCTTGTCGTGAGACACTTTGGATGGGTTGAAGTTCTGCACGTAGAAGCAAAAGGC | 0.805
GAGACCGCAACTGAAAAGTTGTTATCGCTTGTCGTTAGACACTTTGGATGGGTTGAAGTTCTGCACGTAGAAGCAAAAGGC | 0.826

Variant | fraction ligated
GAGACCGCAACTGAAAAGTTGTTATCGCTTGTCGTACGACACTTTGGATGGGTTGAAGTTCTGCACGTAGAAGCAAAAGGC | 0.817
GAGACCGCAACTGAAAAGTTGTTATCGCTTGTCGTAGGACACTTTGGATGGGTTGAAGTTCTGCACGTAGAAGCAAAAGGC | 0.848
GAGACCGCAACTGAAAAGTTGTTATCGCTTGTCGTATGACACTTTGGATGGGTTGAAGTTCTGCACGTAGAAGCAAAAGGC | 0.81
GAGACCGCAACTGAAAAGTTGTTATCGCTTGTCGTAAGCCACTTTGGATGGGTTGAAGTTCTGCACGTAGAAGCAAAAGGC | 0.8
GAGACCGCAACTGAAAAGTTGTTATCGCTTGTCGTAAGGCACTTTGGATGGGTTGAAGTTCTGCACGTAGAAGCAAAAGGC | 0.799
GAGACCGCAACTGAAAAGTTGTTATCGCTTGTCGTAAGTCACTTTGGATGGGTTGAAGTTCTGCACGTAGAAGCAAAAGGC | 0.814
GAGACCGCAACTGAAAAGTTGTTATCGCTTGTCGTAAGACCCTTTGGATGGGTTGAAGTTCTGCACGTAGAAGCAAAAGGC | 0.789
GAGACCGCAACTGAAAAGTTGTTATCGCTTGTCGTAAGACGCTTTGGATGGGTTGAAGTTCTGCACGTAGAAGCAAAAGGC | 0.791
GAGACCGCAACTGAAAAGTTGTTATCGCTTGTCGTAAGACTCTTTGGATGGGTTGAAGTTCTGCACGTAGAAGCAAAAGGC | 0.837
GAGACCGCAACTGAAAAGTTGTTATCGCTTGTCGTAAGACACTTTGGCTGGGTTGAAGTTCTGCACGTAGAAGCAAAAGGC | 0.504
GAGACCGCAACTGAAAAGTTGTTATCGCTTGTCGTAAGACACTTTGGGTGGGTTGAAGTTCTGCACGTAGAAGCAAAAGGC | 0.788
GAGACCGCAACTGAAAAGTTGTTATCGCTTGTCGTAAGACACTTTGGTTGGGTTGAAGTTCTGCACGTAGAAGCAAAAGGC | 0.195
GAGACCGCAACTGAAAAGTTGTTATCGCTTGTCGTAAGACACTTTGGATGGGTTGCAGTTCTGCACGTAGAAGCAAAAGGC | 0.767
GAGACCGCAACTGAAAAGTTGTTATCGCTTGTCGTAAGACACTTTGGATGGGTTGGAGTTCTGCACGTAGAAGCAAAAGGC | 0.755
GAGACCGCAACTGAAAAGTTGTTATCGCTTGTCGTAAGACACTTTGGATGGGTTGTAGTTCTGCACGTAGAAGCAAAAGGC | 0.769
GAGACCGCAACTGAAAAGTTGTTATCGCTTGTCGTAAGACACTTTGGATGGGTTGACGTTCTGCACGTAGAAGCAAAAGGC | 0.777
GAGACCGCAACTGAAAAGTTGTTATCGCTTGTCGTAAGACACTTTGGATGGGTTGAGGTTCTGCACGTAGAAGCAAAAGGC | 0.819
